Measured values taken from patent US20070196354A1, “Method of treating diabetes by inhibiting degradation of at least one of crebl1, atf6, and hnf-4 alpha by htra” (priority 2003, published 2007).

Biological target: T1, HNF-4α (Homo sapiens, UniProt P41235)
T1 construct: expressed in transfected cells; host or cells: HEK293T
T1 sequence (P41235 10-474): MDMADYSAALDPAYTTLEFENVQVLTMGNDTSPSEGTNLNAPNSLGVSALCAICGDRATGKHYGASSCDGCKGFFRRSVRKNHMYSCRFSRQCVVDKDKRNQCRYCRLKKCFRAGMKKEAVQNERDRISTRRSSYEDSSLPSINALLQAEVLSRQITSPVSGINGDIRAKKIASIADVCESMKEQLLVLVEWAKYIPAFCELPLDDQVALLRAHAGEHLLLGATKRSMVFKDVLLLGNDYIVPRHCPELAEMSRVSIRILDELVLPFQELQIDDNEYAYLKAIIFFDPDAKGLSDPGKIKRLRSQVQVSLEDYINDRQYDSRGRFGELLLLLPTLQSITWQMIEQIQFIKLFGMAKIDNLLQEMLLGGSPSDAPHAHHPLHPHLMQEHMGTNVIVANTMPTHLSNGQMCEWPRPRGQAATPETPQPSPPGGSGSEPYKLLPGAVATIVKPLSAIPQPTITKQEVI
Assay: In vitro protease assay, HNF-4α captured on resin
Format: biochemical
Conditions: 50 μg/ml, 37° C., overnight (O/N), anti-FLAG detection
Description: HNF-4α captured on the resin by immunoprecipitation was used in the experiments in order to eliminate the influence of proteinaceous impurities contained in the HNF-4α soluble fraction. More specifically, 300 μl of HNF-4α soluble fraction was dispensed to six tubes (Nos. 1 to 6), followed by adding 20 μl of protein G sepharose 4 FF (Amersham) of 50% slurry that had been subjected to blocking with BSA, to each of tubes, subjected to overturned mixing at 4° C. for 1 hour, and then subjected to centrifugation (10,000 rpm, 10 sec, 4° C.) to collect the supernatant, and thus the pre-treatment (pre-clean) was performed. The resultant supernatant was mixed with 0.4 μl (2 μg) of anti-FLAG antibody (Sigma) by overturned mixing at 4° C. for 3 hours, followed by adding 20 μl of protein G sepharose 4 FF that had been subjected to blocking with BSA, and then subjected to overturned mixing at 4° C. overnight. Thus, HNF-4α was captured on protein G sepharose 4 FF. […]

B1: mature HtrA2: SEQ ID NO: 4; mature protein generated from HtrA2 precursor by cleavage of N-terminal 133 residues, has protease activity (protein, listed as Homo sapiens)
chain: MAVPSPPPASPRSQYNFIADVVEKTAPAVVYIEILDRHPFLGREVPISNGSGFVVAADGLIVTNAHVVADRRRVRVRLLSGDTYEAVVTAVDPVADIATLRIQTKEPLPTLPLGRSADVRQGEFVVAMGSPFALQNTITSGIVSSAQRPARDLGLPQTNVEYIQTDAAIDFGNSGGPLVNLDGEVIGVNTMKVTAGISFAIPSDRLREFLHRGEKKNSSSGISGSQRRYIGVMMLTLSPSILAELQLREPSFPDVQHGVLIHKVILGSPAHRAGLRPGDVILAIGEQMVQNAEDVYEAVRTQSQLAVQIRRGRETLTLYVTPEVTE
modifications: mature HtrA2
Question: B1 was tested. Which “degradation of HNF-4α (band by western blotting)” value did it give?
Answer: The value was “the band of HNF-4α was reduced significantly”.
